Results published in the supplement of paper PMC9170038.

Test system: MS2 coat protein
Assay: apparent KD of MS2 coat protein; designed switch direction (-1 OFF switch, 1 ON switch): -1; higher = weaker reporter binding
Method in brief: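 The reported apparent KD is a per-design median over clusters, from curve fits of normalised cluster fluorescence. Protein titrations used SNAP-549-labelled MS2 coat protein, doubled from 0.7 or 1.5 nM to 3 µM, in Tris-HCl pH 7.5 buffer with KCl, MgCl2, BSA, DTT, tRNA and Tween-20, with no input, 200 uM small-molecule ligand, or an oligonucleotide input. The RNA switches were transcribed on Illumina chips by stalled E. coli RNA polymerase.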

[1] = Eterna round: R95, input ligand: FMN 200 uM
[2] = Eterna round: R95, input ligand: microRNA oligo, concentration not stated
[3] = Eterna round: R95, input ligand: none
[4] = input ligand: microRNA oligo, concentration not stated

Row | Sequence | apparent KD of MS2 coat protein [1] [nM] | apparent KD of MS2 coat protein [2] [nM] | apparent KD of MS2 coat protein [3] [nM] | apparent KD of MS2 coat protein (input ligand: FMN 200 uM) [nM] | apparent KD of MS2 coat protein [4] [nM] | apparent KD of MS2 coat protein (input ligand: none) [nM]
1 | AAUAAACGAGGAUAUACUAAAAUAUGAAUAAAAUAAAUAAAACAUGAGGAUCACCCAUGUAGAAGGCGUAAUAA [JMF's Not so obvious solution 4] (puzzle: Exclusion 2) | 21.3 | 23.4 | 21.4 |  |  | 
2 | AAGAAGAUCAAAGGAUAUGGAGCUGAAACGGCGCUAGAAGGUUGUCUAGUGUAACAUGAGGAUCACCCAUGUAGGUACCUCUAA [AK ExNG1-V2-1.1] (Eterna round: R96, puzzle: Exclusion NG 1) |  |  |  | 730 | 376 | 847
3 | GGAGGAAAGAUAGGAUAUUCGAGGAAGGUGGUGAUAGAGACAUGAGGAUCACCCAUGUAAGGAGGGAAGAAGGGUCGAGGAGGA [AK ExNG2-V2-7] (Eterna round: R96, puzzle: Exclusion NG 2) |  |  |  | 411 | 193 | 142
4 | GGUCGCUUUGUCAGGAUAUCAGGUUAGAUCUGAUUUGAGAAGGGACAUGAGGAUCACCCAUGUGGCGACCUAAA [Eternabot (L1) Solution 42] (Eterna round: R97, puzzle: Brourd's mod of Exclusion 4) |  |  |  | 26.4 |  | 31.7
5 | UGAUCAGACCGAGGAUAUACAUGUAGGACGCACGUGAGUGCGUCCAAUACAUGAGGAUCACCCAUGUAGAAGGCGGUCUGAUCU [JL ENG2 1.94] (Eterna round: R96, puzzle: Exclusion NG 2) |  |  |  | 181 | 76.4 | 86.7
6 | AGCUGUGGCCGAGGAUAUCUAAACCUCGAAAACGAAAUAUAAUCGAACAUGAGGAUCACCCAUGUAGAGAAGGCGGUCUCAGCA [Eli eng2 - 033] (Eterna round: R96, puzzle: Exclusion NG 2) |  |  |  |  | 51 | 
7 | AAAUCUGAGGAGGAUAUGGUAUAGGAAAUGGUGCCAGAAGGUUUCACAUGAGGAUCACCCAUGUCAAAUAGUGA [EX6 #63] (Eterna round: R97, puzzle: Exclusion 6) |  |  |  | 45.7 |  | 52.5
8 | CCGCUGCAAGGAUAUACUUGCGGUGGUGUUCGAGUUCUUCUACUUGAGGAUCACCCAAGUAGAAGGUGCAAAAC [jl-ex2.4.56 ViennaUCT mod] (Eterna round: R97, puzzle: Exclusion 2) |  |  |  | 12.6 |  | 13.5
9 | UUUCCUUGUGUGAGGAUAUACUUGUUUGUGUUUUUGUAGAAGGCACAUGAGGAUCACCCAUGUACUCUUUCCUG [JR_BME4_Sub023] (puzzle: Brourd's mod of Exclusion 4) |  | 34.2 |  |  |  | 
10 | AGUAACUAUCACGAAAGUGAUAGUUACAAUAGCAAGUGAACAUGAGGAUCACCCAUGUCCUCGUUUGCUCGUCUUAU [Sensor 3 - 21] (puzzle: Sensor v3, turn-off variant 2) | 134 | 418 | 136 |  |  | 
11 | GGAGCGGAAGGAUAUGCUGCGGGAUUGCAUGGAAAGAAAAUACAUGAGGAUCACCCAUGUAGAAGGUCCGUGAA [Uslequ] (puzzle: Exclusion 2) |  | 24.8 |  |  |  | 
12 | AGCCAUCUUGUGAGGAUAUGCCCUGGUCAAAGCCGGUAGAAGGUACAUGAGGAUCACCCAUGUGAACUAAUCUA [Eternabot (L1) Solution 90] (Eterna round: R97, puzzle: Brourd's mod of Exclusion 4) |  |  |  | 14.1 |  | 16.2
13 | UUUAACAAGCCAGAUCCUAACAUGAGGAUCACCCAUGUGCUCGUCUGAUUUUGUACUAUCAUGUGAGUGAUAGUAUU [Level Boss var2-04] (puzzle: Sensor v3, turn-off variant 1) | 174 | 683 | 308 |  |  | 
14 | ACAUGUCAUCGAGGAUAUUGCACACAUGAGGAUCACCCAUGUAUUCGGUUGCUCUUGCGUGAGUUCGAGAAGGCGAUGUACAUU [Ex NG2 #85] (Eterna round: R96, puzzle: Exclusion NG 2) |  |  |  | 134 | 215 | 262
15 | UGUGCGUAUGUGAGGAUAUGCUGGUCCUUGGAUCGGCAGAAGGCACAUGAGGAUCACCCAUGUGGUGUCGUUCA [salish99_Bmod_ex4_098] (puzzle: Brourd's mod of Exclusion 4) |  | 208 |  |  |  | 
16 | GUCAUCGCAGGAUAUUAGAAUUUUUACAUGAGGAUCACCCAUGUUAAUUGGGUCUAAGUCUAAGAAGGGCGAUGAA [JR_EX5_Sub012] (Eterna round: R97, puzzle: Exclusion 5) |  |  |  | 105 |  | 32.4
17 | CGAUGUGGAGUGAGGAUAUCGUGUUCGAAAGAACGUGAGAAGGCACAUGAGGAUCACCCAUGUGAUUCAUGUCG [Omei Ex4B A7] (Eterna round: R97, puzzle: Brourd's mod of Exclusion 4) |  |  |  | 40.9 |  | 26.2
18 | CGGUGCAGGCUGCGGUCCUACAUGAGGAUCACCCAUGUGGUCCGGUGGCGUGGGUCGCCGGACUUGGCUCGUCUUGU [salish99_S_TOV1_R5_015] (Eterna round: R97, puzzle: Sensor, turn-off variant 1) |  |  |  | 56.8 |  | 75.6
19 | UUAUACGCUGAGGAUAUCUUCACUGAAAAGUGAAGAGAAGGCGGUACAUGAGGAUCACCCAUGUCUAUGGGCAG [Ex-6 Malc#19] (puzzle: Exclusion 6) | 381 | 388 | 478 |  |  | 
20 | UAACUUCUUGUAAGGAUAUCGGUCCCAAGGGACAACGAGAAGGUACAUGAGGAUCACCCAUGUGAAAUAAGAAU [Zala] (puzzle: Brourd's mod of Exclusion 4) | 66.6 | 22.7 | 19.8 |  |  | 
21 | GGCAUCGGAGGAUAUAUUUAUGGUGAUACCGGAAGCUUUCUACUUGAGGAUCACCCAAGUAGAAGGCCGAUGCC [jl-ex2.4.85 ViennaUCT mod] (Eterna round: R97, puzzle: Exclusion 2) |  |  |  | 39.5 |  | 13.7
22 | GAAAGGGCAGGAUAUGCAGAGAGAGAGAGAGAGAGAAAAAAACAUGAGGAUCACCCAUGUAGAAGGGCCGAAAG [salish99-ex2-06] (Eterna round: R96, puzzle: Exclusion 2) |  |  |  | 31 | 27.8 | 34.2
23 | CUUUUUUCUGUAAGGAUAUAGCCCGCGAGAUGUGGCUAGAAGGUACAUGAGGAUCACCCAUGUGUGUCCACAUU [Eternabot (L1) Solution 55] (Eterna round: R97, puzzle: Brourd's mod of Exclusion 4) |  |  |  | 141 |  | 46.8
24 | GGUGGACAUGAGGAUCACCCAUGUGAGGAUAUCGGCCGGUUCGCGGUGGCUGGCGUCUCGAGAAGGCACAUAGU [Exclusion 1 V72] (puzzle: Exclusion 1) |  | 86.4 |  |  |  | 
25 | UACACUGCAUGAGGAUCAAACAUGAGGAUCACCCAUGUAUAGCAGGCUUUUUGCACGUCUUAUAAUUAUGUAGUGUA [Electric Eye 15 - Jieux - Sensor, turn-off variant 1] (Eterna round: R97, puzzle: Sensor, turn-off variant 1) |  |  |  | 14.2 |  | 14.4
26 | UAUUCGCGAGGAUAUGCAGUCGAGUCCAUUACGUGUCUGGGACUUGAGGAUCACCCAAGUAGAAGGCGUCUCAG [salish99_ex2_r4_641] (Eterna round: R97, puzzle: Exclusion 2) |  |  |  | 160 |  | 194
27 | GAAUAGUGAGGAUAUGCAAUGAAGGUAGUACGAUAUGUCUGACAUGAGGAUCACCCAUGUAGAAGGCACAGAUC [EX2 #12] (Eterna round: R97, puzzle: Exclusion 2) |  |  |  | 16.1 |  | 22
28 | UAUUAACAAGCAAGAUCCUACAUGAGGAUCACCCAUGUGUUCGUCUUAUAAGGUACUGUGACGAAAGUCACGGUACC [Sensor 3, v1 - 75] (puzzle: Sensor v3, turn-off variant 1) | 76 | 321 | 108 |  |  | 
29 | GUAAAGGUAGGAUAUACGAAGAAAAAGGGUAGAAUAAUAACACAUGAGGAUCACCCAUGUAGAAGGACCAAAUG [Mat - Exclusion 2 - Mod of my Tesla design - D5] (puzzle: Exclusion 2) | 65.7 | 26.5 | 32.4 |  |  | 
30 | GCGCACCUACCAAAAGGUAGGACAACAUGAGGAUCACCCAUGUAGGAUAUCGAUUGCUUUGCAGUCGAGAAGGACAUGAUGCGC [JL ENG3 3.80 Mod 7] (Eterna round: R96, puzzle: Exclusion NG 3) |  |  |  | 111 | 25.9 | 34.7
